Laboratory results reported in IntAct's records for PubMed 23911326.

B1: Metabotropic glutamate receptor 5 (Mus musculus), Q3UVX5 (parent)
chain: MVLLLILSVLLLKEDVRGSAQSSERRVVAHMPGDIIIGALFSVHHQPTVDKVHERKCGAVREQYGIQRVEAMLHTLERINSDPTLLPNITLGCEIRDSCWHSAVALEQSIEFIRDSLISSEEEEGLVRCVDGSSSFRSKKPIVGVIGPGSSSVAIQVQNLLQLFNIPQIAYSATSMDLSDKTLFKYFMRVVPSDAQQARAMVDIVKRYNWTYVSAVHTEGNYGESGMEAFKDMSAKEGICIAHSYKIYSNAGEQSFDKLLKKLRSHLPKARVVACFCEGMTVRGLLMAMRRLGLAGEFLLLGSDGWADRYDVTDGYQREAVGGITIKLQSPDVKWFDDYYLKLRPETNLRNPWFQEFWQHRFQCRLEGFAQENSKYNKTCNSSLTLRTHHVQDSKMGFVINAIYSMAYGLHNMQMSLCPGYAGLCDAMKPIDGRKLLDSLMKTNFTGVSGDMILFDENGDSPGRYEIMNFKEMGKDYFDYINVGSWDNGELKMDDDEVWSKKNNIIRSVCSEPCEKGQIKVIRKGEVSCCWTCTPCKENEYVFDEYTCKACQLGSWPTDDLTGCDLIPVQYLRWGDPEPIAAVVFACLGLLATLFVTVIFIIYRDTPVVKSSSRELCYIILAGICLGYLCTFCLIAKPKQIYCYLQRIGIGLSPAMSYSALVTKTNRIARILAGSKKKICTKKPRFMSACAQLVIAFILICIQLGIIVALFIMEPPDIMHDYPSIREVYLICNTTNLGVVTPLGYNGLLILSCTFYAFKTRNVPANFNEAKYIAFTMYTTCIIWLAFVPIYFGSNYKIITMCFSVSLSATVALGCMFVPKVYIILAKPERNVRSAFTTSTVVRMHVGDGKSSSAASRSSSLVNLWKRRGSSGETLRYKDRRLAQHKSEIECFTPKGSMGNGGRATMSSSNGKSVTWAQNEKSTRGQHLWQRLSVHINKKENPNQTAVIKPFPKSTESRGQGAGAGGGSGPGAAGAGSAGCTATGGPEPPDAGPKALYDVAEAEERFPAAARPRSPSPISTLSHLAGSAGRTDDDAPSLHSETAARSSSSQGSLMEQISSVVTRFTANITELNSMMLSTAAAPGPPGTPICSSYLIPKEIQLPTTMTTFAEIQPLPAIEVTGGAQPATGPSPAQETPAGAEAAPGKPDLEELVALTPPSPFRDSVDSGSTTPNSPVSESALCIPSSPKYDTLIIRDYTQSSSSL
partner: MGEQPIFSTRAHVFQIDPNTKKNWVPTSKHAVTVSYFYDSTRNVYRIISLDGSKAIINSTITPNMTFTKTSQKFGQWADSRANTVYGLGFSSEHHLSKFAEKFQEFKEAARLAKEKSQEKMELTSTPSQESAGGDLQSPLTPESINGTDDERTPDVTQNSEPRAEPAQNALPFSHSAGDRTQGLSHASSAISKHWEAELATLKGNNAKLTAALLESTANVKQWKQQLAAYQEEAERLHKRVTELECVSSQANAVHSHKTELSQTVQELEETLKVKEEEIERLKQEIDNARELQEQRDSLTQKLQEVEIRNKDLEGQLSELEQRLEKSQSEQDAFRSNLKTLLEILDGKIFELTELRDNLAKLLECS

Variants of: B1
Conditions: with Homer1, Q9Z214-1

Row | effect of a mutation on the interaction | Variant
1 | disrupting interaction strength | F1160R
